Experimental data published in patent US11202837B2, “Biological materials and uses thereof” (Antikor Biopharma Limited, priority 2014, dated 2021).
Values joined by “and” are separate entries in the source; they are usually repeats but may differ in a detail not shown here. Identical values can stand only once.

Assays:
[1] = test system: BT474 human breast carcinoma xenografts; test: Tumour growth inhibition or eradication in BT474 xenograft model; type: in vivo
Experimental: (§1) Mice. […] The animals were fed ad libitum water (reverse osmosis, 1 ppm Cl), and NIH 31 Modified and Irradiated Lab Diet® consisting of 18.0% crude protein, 5.0% crude fat, and 5.0% crude fiber. The mice were housed on irradiated Enrich-o'cobs™ Laboratory Animal Bedding in static microisolators on a 12-hour light cycle at 20-22° C. (68-72° F.) and 40-60% humidity. Charles River Discovery Services North Carolina (CR Discovery Services, who carried out this contracted R&D) specifically complies with the recommendations of the Guide for Care and Use of Laboratory Animals with respect to restraint, husbandry, surgical procedures, feed and fluid regulation, and veterinary care.
Tumor weight may be estimated with the assumption that 1 mg is equivalent to 1 mm^3 of tumor volume.

[2] = Plasma pharmacokinetics in Sprague-Dawley rats (ELISA); type: in vivo, rat; settings: for Bioavailability (blood exposure, AUC, 24 hrs): mean AUC in anti-payload and anti-protein detection; for Elimination half-life (hrs) Total Antibody: plasma ELISA
Experimental: Rats. Male Sprague-Dawley rats (sourced from Charles River, UK) were group housed in a temperature and light controlled facility on a 12 hour light/dark cycle with food and water available ad libitum. Rats selected for study inclusion were individually housed until completion of the study. All animals were subjected to health monitoring in accordance with the guidelines by the onsite home office registered veterinarian. All animal experimentation was covered under the UK Animals (Scientific Procedures) Act (1986) and EU directive 86/609/EEC. All such work was monitored by regular inspections of procedures and facilities by the on-site Veterinarian and UK Home Office inspectors. The study design required the surgical implantation of catheters into the jugular of male Sprague-Dawley rats.
Rats were anaesthetised using the inhalation anaesthetic isoflurane and placed in dorsal recumbency. The right jugular vein was exposed and a loose ligature was placed caudally and the cranial end of vein was ligated. A small incision was made between the ligatures into which the catheter (polyethylene 50 tubing) was inserted. The catheter was secured in place by tying the loose ligature around the catheterised vessel. A small incision was made in the scapular region to serve as the exit site of the catheter. The catheter was subcutaneously tunneled and exteriorised through the scapular incision. Patency of the catheter was tested, and the catheter was filled with a locking solution (heparinised saline) and sealed with a stainless steel pin. Post-operative monitoring of animals was performed according to Home Office good practice guidelines. Intravenous dosing was via the tail vein.
(§2) Therapeutic (test) Agents. All test agents were supplied as ready-to-dose dosing solutions. All dosing solutions were stored at 4° C. until dosed. All treatments were administered in a dosing volume scaled to the body weights of the individual animals to obtain the dosing concentration described in the treatment tables.
Treatment (rats). On Day 1 of the study, rats were divided into groups of three animals (per test agent being evaluated), and dosing was initiated according to the treatment plan summarized in the tables below
Sampling (rats). Serial venous blood samples (approx. 0.1-0.2 ml) were collected via the exteriorised jugular vein catheter at specified time points (0.5 to 72 hrs post dosing) and placed in heparinised containers. Prior to taking the blood samples the catheter was evacuated of heparinised saline to prevent dilution of the blood sample. Following each blood sample the volume of blood removed is replaced with an equal volume of heparinised saline via the catheter and sealed. Blood samples were centrifuged (5 minutes, 16,100 g, 4° C.) to separate the plasma. Plasma samples were transferred to fresh containers and promptly frozen and stored at −20° C. until used for analysis.
(§3) Quantification of test agents in plasma. An ELISA was carried out as described in Example 31 The detecting antibodies were (a) Anti-T7 tag to detect the scFv (total antibody), (b) Anti-Human Fab-specific to detect trastuzumab (total antibody), (c) Anti-MMAF (Concortis), Anti-MMAE (Concortis), anti-DM1
(§4) (Concortis) and anti-cemadotin (in-house mouse monoclonal antibody, Example 33 that also recognised P5C5 and AuristatinF), total ADC. The reference test agents were used to construct a calibration curve for which the plasma samples were compared to, in order to quantify the amount present. The concentration was plotted against time (average of three animals with standard error) and fitted to a 2-phase decay curve using GraphPad Prism to derive kinetic parameters.

[3] = Body weight and tolerability in BT474 xenograft studies; type: in vivo, mouse; settings: BT474 xenograft study
Text: Treatment-Related Side Effects. Test animals were weighed Day 1. Animals were observed frequently for overt signs of any adverse, treatment-related side effects. Individual body weight loss was monitored every other day and any animal whose weight exceeded the limits for acceptable body weight loss was euthanized. Group mean body weight loss also was monitored as per protocol. Acceptable toxicity for the maximum tolerated dose (MTD) was defined as a group mean body weight loss of less than 20% during the test.

[4] = test system: BT474 human breast carcinoma xenografts; test: Tumour penetration in BT474 xenografts, immunohistochemistry 2 hrs post dose; type: in vivo, mouse; settings: 5 mg/kg single i.v. dose, SCID mice, BT474, payload detection (total ADC)
Experimental: as §1, with “care. The animal care and use program at CR Discovery Services is accredited by the Association for Assessment and Accreditation of Laboratory Animal Care International (AAALAC), which assures compliance with accepted standards for the care and use of laboratory animals.” for “care.”
Therapeutic (test) Agents. […] All dosing solutions were stored at 4° C. until dosed. […] Treatment.

HER2 [5] = molecular target: T1, HER2 (Homo sapiens, UniProt P04626); test: Rat urine analysed on a HER2-Biacore SPR chip; type: in vivo; settings: 10-fold concentrated urine, compared to free scFv samples
Experimental: (A) A single i.v. dose was injected into male Sprague-Dawley rats at 4 mg/kg. Plasma samples were taken at time points indicated and analysed by ELISA using anti-protein detection (total protein, indicated by solid lines, closed symbols) and where relevant anti-drug detection (total ADC, indicated by dashed lines, open symbols). The SE of the mean of each group and experimental triplicates are shown. ADC scFv (TCT1067)-P5C5 (circles) (n=3) and scFv (TCT1067) (squares) (n=3). (B) 10-fold concentrated urine collected over 24 hours analysed on a HER2-Biacore SPR chip for the scFv (TCT1067)-injected rats, 3 animal samples. The scFv reference is shown. The bulk shifts in the urine samples are due to the concentration of urine components. (C) 10-fold concentrated urine collected over 24 hours analysed on a HER2-Biacore SPR chip for the scFv (TCT1067)-P5C5 conjugate-injected rats, 3 animal samples. The scFv (TCT1067)-P5C5 reference is shown. The bulk shifts in the urine samples are due to the concentration of urine components.
The scFv (TCT1067)-P5C5 conjugate were detected in the plasma via its T7 tag (detecting total antibody) and via the payload (detecting total ADC). […] The urine from the treated animals was collected over 24 hours, concentrated 10-fold in a spin concentrator (MWCO-10 kDa) and dialysed against PBS. These samples, from three rats per group, were analysed on a Biacore SPR chip.

[6] = Concentration reached and storage stability of purified conjugates in buffer; type: physicochemical; settings: after purification and concentration
HER2 [7] = molecular target: T1, HER2; settings: by mutagenesis, Schier R et al (1996); cited from earlier work
[8] = Aggregation by HPLC size-exclusion chromatography; type: physicochemical
Experimental: Aggregation can be tested by analytical size-exclusion HPLC measuring the percentage of high molecular weight material compared to the conjugate eluting at a retention time characteristic of a monomeric conjugate.
Typically, 20 μg of protein was injected for analytical runs and 300 μg for semi-preparative runs.

HER2 [9] = molecular target: T1, HER2; test: Biacore SPR binding to immobilised HER2; settings: immobilised HER2
Outline: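 HER2 amine-coupled on CM5 or CM3 chips, Biacore T200. Free antibody (typically 5-0.6 μg/ml) and conjugates (20-2.5 μg/ml) injected 160 s at 30 μl/min, 900 s dissociation (3600 s at highest concentration); regeneration with 8M MgCl2. Kinetics compared with unmodified scFv.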

[10] = Plasma pharmacokinetics in BALB/c mice (ELISA, total antibody and total ADC); type: in vivo, mouse; settings: for Bioavailability (blood exposure, AUC, 24 hrs) / Elimination half-life (hrs) Total Antibody: mice; for Bioavailability (blood exposure, AUC, 24 hrs): mean AUC in anti-payload and anti-protein detection; for Elimination half-life (hrs) Total Antibody: plasma ELISA
Experimental: Mice. Female BALB/c mice (BALB/cAnNCrl, Charles River) were eight weeks old with body weights ranging from 15.9 to 21.9 grams at the beginning of the study. The animals were fed ad libitum water (reverse osmosis, 1 ppm Cl) and NIH 31 Modified and Irradiated Lab Diet® consisting of 18.0% crude protein, 5.0% crude fat, and 5.0% crude fiber. The mice were housed on irradiated Enrich-o'cobs™ Laboratory Animal Bedding in static microisolators on a 12-hour light cycle at 20-22° C. (68-72° F.) and at 40-60% humidity. Charles River Discovery Services North Carolina (CR Discovery Services, who carried out this contracted R&D) specifically complies with the recommendations of the Guide for Care and Use of Laboratory Animals with respect to restraint, husbandry, surgical procedures, feed and fluid regulation, and veterinary care. The Animal Care and Use program at CR Discovery Services is accredited by the Association for Assessment and Accreditation of Laboratory Animal Care International, which assures compliance with accepted standards for the care and use of laboratory animals.
as §2
Treatment (mice). On Day 1 of the study, mice were divided into groups each consisting of eighteen mice (per test agent being evaluated), and dosing was initiated according to the treatment plan summarized in the treatment tables. All doses were administered intravenously (i.v.) by tail vein injection as described in the tables below.
Endpoint. The study endpoint occurred after the last sampling point, typically on Day 2 or 4, twenty-four or seventy-two hours post dose.
Sampling (mice). Blood (full blood volume) was collected from three animals per treatment group per timepoint. Samples were collected from all animals via terminal cardiac puncture under isoflurane anesthesia. Once collected, blood samples were collected into collection tubes containing lithium heparin or K2EDTA as anticoagulants and were processed for plasma at each timepoint. Each plasma sample was stored at −80° C. until used for analysis.
as §3, §4

[11] = single i.v. dose 4 mg/kg, male Sprague-Dawley rats

B1: scFv (TCT1067)-P5-C5 (conjugate)
scFv: SGSGGSGQVQLVQSGAEVKKPGESLKISCKGSGYSFTSYWIAWVRQMPGKGLEYMGLIYPGDSDTKYSPSFQGQVTISVDKSVSTAYLQWSSLKPSDSAVYFCARHDVGYCTDRTCAAWPEWLGVWGQGTLVTVSSGGGGSGGGGSGGGGSQSVLTQPPSVSAAPGQKVTISCSGSSSNIGNNYVSWYQQLPGTAPKLLIYGHTNRPAGVPDRFSGSKSGTSASLAISGFRSEDEADYYCASWDYTLSGWVFGGGTKLTVLMASMTGGQQMG
tumour growth delay ([1]; 5 mg/kg dosing regimen): ~20 days
tumour shrinkage compared with the trastuzumab ADC ([1]; scFv ADC dosed more frequently): more effectively
Bioavailability (blood exposure, AUC, 24 hrs) ([2]; rats, 1 × 4 mg/kg, Table 64): 90.1 μghr/ml
Elimination half-life (hrs) Total ADC ([2]; rats, 1 × 4 mg/kg, plasma ELISA anti-payload, Table 64): 2.2085 h
Elimination half-life (hrs) Total Antibody ([2]; rats, 1 × 4 mg/kg, Table 64): 0.512 h
increase in bioavailability (AUC) over unmodified scFv [2, 11]: 4.5 fold
plasma clearance (in words) [2, 11]: clears more slowly than the unmodified fragment
stability in plasma (total antibody vs total ADC clearance lines) ([2]; single i.v. dose 4 mg/kg, rats): stable in plasma
volume of distribution compared to unmodified scFv ([2]; single i.v. dose 4 mg/kg, rats): lower volume of distribution
body weight, heavier than the IgG ADC group of mice [3]: up to 20%
tolerability from body weights (in words) [3]: better tolerated
localisation in tumour sections at 2 hrs post-dosing [4]: localise throughout the tumour
HER2 binding activity in urine collected over 24 hours (HER2 [5]): comparable binding activity
time stable in the buffer [6]: several months

B2: scFv (TCT1067) (protein)
scFv: B1 scFv
increase of binding affinity over the anti-HER2 scFv of Example 27 (HER2 [7]): over 1000 fold
Bioavailability (blood exposure, AUC, 24 hrs) ([2]; rats, 1 × 4 mg/kg, Table 64): 20.46 μghr/ml
Elimination half-life (hrs) Total Antibody ([2]; rats, 1 × 4 mg/kg, Table 64): 0.8 h
plasma clearance (in words) [2, 11]: clears rapidly
% aggregate by HPLC-SEC (FIG. 71) ([8]; scFv conjugation reaction with 5 molar equivalents of Auristatin F-C5 NHS (reactions 1 and 4)): 0%
% aggregate by HPLC-SEC (FIG. 71) ([8]; scFv conjugation reaction with 10 molar equivalents of Auristatin F-C5 NHS (reactions 2 and 5)): 0%
% aggregate by HPLC-SEC (FIG. 71) ([8]; scFv conjugation reaction with 25 molar equivalents of Auristatin F-C5 NHS (reactions 3 and 6)): 0%
association rate (HER2 [9]): 3.9e+06 M⁻¹ s⁻¹ and 3.88e+06 M⁻¹ s⁻¹
dissociation rate (HER2 [9]): 3.7e-05 s⁻¹ and 3.69e-05 s⁻¹
Bioavailability (blood exposure, AUC, 24 hrs) ([10]; 1 × 2 mg/kg, Table 61 (AF-C5)): 8.13 μghr/ml
Bioavailability (blood exposure, AUC, 24 hrs) ([10]; 1 × 2 mg/kg, Table 62): 8.13 μghr/ml
Elimination half-life (hrs) Total Antibody ([10]; 1 × 2 mg/kg, Table 61 (AF-C5)): 1.05 h
Elimination half-life (hrs) Total Antibody ([10]; 1 × 2 mg/kg, Table 62): 1.05 h
Bioavailability (blood exposure, AUC, 24 hrs) ([10]; 1 × 5 mg/kg, Table 57): 8.12 μghr/ml
Elimination half-life (hrs) Total Antibody ([10]; 1 × 5 mg/kg, Table 57): 1.05 h
plasma clearance (in words) ([10]; single i.v. dose, female BALB/c mice (5 mg/kg MMAF-C5, P5C5; 2 mg/kg AF-C5, DM1)): clears rapidly
